B1: THAP1; numbered along this chain (parent)
chain: MVQSCSAYGCKNRYDKDKPVSFHKFPLTRPSLCKEWEAAVRRKNFKPTKYSSICSEHFTPDCFKRECNNKLLKENAVPTIFLCTEPHDKKEDLLEPQEQLPPPPLPPPVSQVDAAIGLLMPPLQTPVNLSVFCDHNYTVEDTMHQRKRIHQLEQQVEKLRKKLKTAQQRCRRQERQLEKLKEVVHFQKEKDDVSERGYVILPNDYFEIVEVPA

Data on 28 variants can be found in the supplement of paper PMC11811203.

Variants of B1 are the subject of the data set. Briefly: THAP1 transcriptional activity (GFP+/GFP- enrichment relative to wild-type constructs) (ratio to WT); higher = more THAP1 activity (PSMB5 reporter activation). As to conditions: with PSMB5 promoter-GFP reporter. Here is the method:
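Deep mutational scan of human THAP1. Site-saturation single amino acid variant library (residues 2-213) was expressed by lentivirus at MOI ~0.3 in THAP1-knockout HEK-293T cells carrying an endogenous PSMB5 promoter-GFP knock-in reporter. Five days post-transduction, BFP+ cells were FACS-sorted into GFP dim and GFP bright populations and variants were counted by Illumina sequencing. Activity is the GFP-bright/GFP-dim read fold change, mean of 2 replicates, divided by the mean fold change of wild-type (synonymous) constructs in the same screen pool; WT = 1.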
Consider MVQSCSAYGCKNRYDKDKPVSFHKFPLTRPSLCKEWEAAVRRKNFKPTKYSSICSEHFTPDCFKRECNNKLLKENAVPTIFLCTEPHDKKEDLLEPQEQLPPPPLPPPVSQVDAAIGLLMPPLQTPVNLSVFCDHNYTVEDTMHQRKRIHQLEQQVEKLRKKLKTAQQRCRRQERQLEKLKEVVHFQKEKDDVSERGYVILPSDYFEIVEVPA [N203S], for which the THAP1 transcriptional activity stood at 1.54. Next, MVQSCSAYGCKNRYDKDKPVSFHKFPLTRPSLCKEWEAAVRRKNFKPTKYSSICSEHFTPDCFKRECNNKLLKTNAVPTIFLCTEPHDKKEDLLEPQEQLPPPPLPPPVSQVDAAIGLLMPPLQTPVNLSVFCDHNYTVEDTMHQRKRIHQLEQQVEKLRKKLKTAQQRCRRQERQLEKLKEVVHFQKEKDDVSERGYVILPNDYFEIVEVPA [E74T]: 0.334. For MVQSCSAYGCKIRYDKDKPVSFHKFPLTRPSLCKEWEAAVRRKNFKPTKYSSICSEHFTPDCFKRECNNKLLKENAVPTIFLCTEPHDKKEDLLEPQEQLPPPPLPPPVSQVDAAIGLLMPPLQTPVNLSVFCDHNYTVEDTMHQRKRIHQLEQQVEKLRKKLKTAQQRCRRQERQLEKLKEVVHFQKEKDDVSERGYVILPNDYFEIVEVPA [N12I], the THAP1 transcriptional activity turned out to be 0.0667. With MVQSCSAYGCKNRYDKDKPVSFHKFPLTRPSLCKEWEAAVRRKNFKPTKYSSICSEHFTPDCFKRECNNKLLKENAVPTIFLCTEPHDKKEDLLEPQEQLPPPPLPPPVSQVDAAINLLMPPLQTPVNLSVFCDHNYTVEDTMHQRKRIHQLEQQVEKLRKKLKTAQQRCRRQERQLEKLKEVVHFQKEKDDVSERGYVILPNDYFEIVEVPA [G117N], the THAP1 transcriptional activity came to 0.857.

As for MVQSCSAYGCKNRYDKDKPVSFHKFPLTRPSLCKEWEAAVRRKNFKPTKYSDICSEHFTPDCFKRECNNKLLKENAVPTIFLCTEPHDKKEDLLEPQEQLPPPPLPPPVSQVDAAIGLLMPPLQTPVNLSVFCDHNYTVEDTMHQRKRIHQLEQQVEKLRKKLKTAQQRCRRQERQLEKLKEVVHFQKEKDDVSERGYVILPNDYFEIVEVPA [S52D], the THAP1 transcriptional activity came to 0.109. For MVQSCSAYGCKNRYDKDKPVSFHKFPLTRPSLCKEWEAAVRRKNFKPTKYSSICSEHFTPDCFKRECNNKLLKENAVPTIFLCTEPHDKKEDLLEPQEQLPPPPLPPPVSQVDAAIGLLMPPLQTPWNLSVFCDHNYTVEDTMHQRKRIHQLEQQVEKLRKKLKTAQQRCRRQERQLEKLKEVVHFQKEKDDVSERGYVILPNDYFEIVEVPA [V127W] the value was 0.336; for MVQSCSAYGCKNRYDKDKPVSFHKFPLTRPSLCKEWEAAVRRKNFKPTKYSSICSEHFTPDCFKRECNNKLLKENAVPTIFLCTEPHDKKEDLLEPQEQLPPPPLPPPVSFVDAAIGLLMPPLQTPVNLSVFCDHNYTVEDTMHQRKRIHQLEQQVEKLRKKLKTAQQRCRRQERQLEKLKEVVHFQKEKDDVSERGYVILPNDYFEIVEVPA [Q111F], 0.585; for MVQSCSAYGCKNRYDKDKPVSFHKFPLTRPSLCKEWEAAVRRKNFKPTKYSSICSEHFTPDCFKRECNNKLLKENAVPTIFLCTEPHDKKEDLLEPQEQLPPPPLPPPVSQVDAAIGLLMPPSQTPVNLSVFCDHNYTVEDTMHQRKRIHQLEQQVEKLRKKLKTAQQRCRRQERQLEKLKEVVHFQKEKDDVSERGYVILPNDYFEIVEVPA [L123S], 0.637. For MVQSCSAYGCKNRYDKDKPVSFHKFPLTRPSLCKEWEAAVRRKNFKPTKYSSICSEHFTPDCFKRECNNKLLKENAVPTIFLCTEPHDKKEDLLEPQEQLPPPPLPPPVSQVDAAIGLLMPPLQTPVNLSVFCDHNYTVEDTMHQRKRIHQLEQQVEKLRKKLKTAQQRCRRQERQLEKLKEVVHFQKEKDDVSERGYVILPNDYFQIVEVPA [E207Q] the value was 1.02; for MVQSCSAYGCKNRYDKDKPVSFHKFPLTRPSLCKEWEAAVRRKNFKPTKYSSICSEHFTPDCFKRECNNKLLKENAVPTIFLCTEPHDKKEDLLEPQEQLPPPPLPPPVSQVDAAIGLLMPPLQTPVNLSVFCDHNYTVEDTMHQRKRIHQLEQQVEKLRKKLKTAQQRCRRQERQLEKLKEVVHFQKEKDDVSERGYVILPNDYFEIVEWPA [V211W], 0.56; for MVQSCSAYGCKNRYDKDKPVSFHKFPLTRPSLCKEWEAAVRRKNFKPTKYSSICSEHFTPDCFKRECNNKLLKENAVPTIFLCTEPHDKKEDLLEPQEQLPPPPLPPPVSQVDAAIGLLMPPLQTPVNLSVFCDHNYTVEDTMHQRKRIHQLEQQVEKLRKKLKTAQQVCRRQERQLEKLKEVVHFQKEKDDVSERGYVILPNDYFEIVEVPA [R169V], 0.347. Next, MVQSCSAYGCKNRYDKDKPVSFHKFPLTRPSLCKEWEAAVRRKNFKPTKYSSICSEHFTPDCFKRECNNKLLKENAVPTIFLCTEPHDKKEDLLEPQEQLPPPPLPPPVSQVDAAIGLLMPPLQTPVNLSVFCDHNYTVEDTMHQRKRIHQLEQQVEKLRKKLKTAQQMCRRQERQLEKLKEVVHFQKEKDDVSERGYVILPNDYFEIVEVPA [R169M]: 0.388; MVQSCSAYGCKNRYDKDKPVSFHKFPLTRPSLCKEWEAAVRRKNFKPTKYSSICSEHFTPDCFKRECNNKLLKENAVPTIFLCTEPHDKKEDLLEPQEQLPPPPLPPPVSQVDAAIGLLMPPLQTPVNLSVFCDHNYTVEDTMHDRKRIHQLEQQVEKLRKKLKTAQQRCRRQERQLEKLKEVVHFQKEKDDVSERGYVILPNDYFEIVEVPA [Q145D]: 0.415; MVQSCSAYGCKNRYDKDKPVSFHKFPLTRPSLCKEWEAAVRRKNFKPTKYSSICSEHFTPDCFKRECNNKLLKENAVPTIFLCTEPHDKKEDLLEPQEQLPPPPLPPPVSQVDAAIGLLMPPLQTPVNLPVFCDHNYTVEDTMHQRKRIHQLEQQVEKLRKKLKTAQQRCRRQERQLEKLKEVVHFQKEKDDVSERGYVILPNDYFEIVEVPA [S130P]: 0.611.

Take MVQSCSAYGCKNRYDKDKPYSFHKFPLTRPSLCKEWEAAVRRKNFKPTKYSSICSEHFTPDCFKRECNNKLLKENAVPTIFLCTEPHDKKEDLLEPQEQLPPPPLPPPVSQVDAAIGLLMPPLQTPVNLSVFCDHNYTVEDTMHQRKRIHQLEQQVEKLRKKLKTAQQRCRRQERQLEKLKEVVHFQKEKDDVSERGYVILPNDYFEIVEVPA [V20Y]: the THAP1 transcriptional activity turned out to be 0.312.

With MVQSCSAYGCKNVYDKDKPVSFHKFPLTRPSLCKEWEAAVRRKNFKPTKYSSICSEHFTPDCFKRECNNKLLKENAVPTIFLCTEPHDKKEDLLEPQEQLPPPPLPPPVSQVDAAIGLLMPPLQTPVNLSVFCDHNYTVEDTMHQRKRIHQLEQQVEKLRKKLKTAQQRCRRQERQLEKLKEVVHFQKEKDDVSERGYVILPNDYFEIVEVPA [R13V], the THAP1 transcriptional activity stood at 0.185. As for MVQSCSAYGFKNRYDKDKPVSFHKFPLTRPSLCKEWEAAVRRKNFKPTKYSSICSEHFTPDCFKRECNNKLLKENAVPTIFLCTEPHDKKEDLLEPQEQLPPPPLPPPVSQVDAAIGLLMPPLQTPVNLSVFCDHNYTVEDTMHQRKRIHQLEQQVEKLRKKLKTAQQRCRRQERQLEKLKEVVHFQKEKDDVSERGYVILPNDYFEIVEVPA [C10F], the THAP1 transcriptional activity is 0.113. Next, MVQSCSAYGCKNRYDKDKPVSFHKFPLTRPSLCKEWEEAVRRKNFKPTKYSSICSEHFTPDCFKRECNNKLLKENAVPTIFLCTEPHDKKEDLLEPQEQLPPPPLPPPVSQVDAAIGLLMPPLQTPVNLSVFCDHNYTVEDTMHQRKRIHQLEQQVEKLRKKLKTAQQRCRRQERQLEKLKEVVHFQKEKDDVSERGYVILPNDYFEIVEVPA [A38E]: 0.41; MVQSCSAYGCKNRYDKDKPVSFHKSPLTRPSLCKEWEAAVRRKNFKPTKYSSICSEHFTPDCFKRECNNKLLKENAVPTIFLCTEPHDKKEDLLEPQEQLPPPPLPPPVSQVDAAIGLLMPPLQTPVNLSVFCDHNYTVEDTMHQRKRIHQLEQQVEKLRKKLKTAQQRCRRQERQLEKLKEVVHFQKEKDDVSERGYVILPNDYFEIVEVPA [F25S]: 0.0861; MVQSCSAYGCKNRYDKDKPVSFHKFPLTRPSLCKEWEAAVRRKNFKPTKYSSICSEHFTPDCFKRECNNKLLKENAVPTIFLCTEPHDKKEDLLEPQEQLPEPPLPPPVSQVDAAIGLLMPPLQTPVNLSVFCDHNYTVEDTMHQRKRIHQLEQQVEKLRKKLKTAQQRCRRQERQLEKLKEVVHFQKEKDDVSERGYVILPNDYFEIVEVPA [P102E]: 1.85. Regarding MVQSCSAYGCKNRYDKDKPVSFHKFPLTRPSLCKEWEAAVRRKNFKPTKYSSICSEHFTPDCFKRECNNKLLKENAVPTIFVCTEPHDKKEDLLEPQEQLPPPPLPPPVSQVDAAIGLLMPPLQTPVNLSVFCDHNYTVEDTMHQRKRIHQLEQQVEKLRKKLKTAQQRCRRQERQLEKLKEVVHFQKEKDDVSERGYVILPNDYFEIVEVPA [L82V], the THAP1 transcriptional activity came to 1.71.

As for MVQSCSAYGCKNRYDKDKPVSFHKFPLTRPSLCKEWEAAVRRKNFKPTKYSSICSEHFTPDCFKRECNNKLLKENAVPTIFECTEPHDKKEDLLEPQEQLPPPPLPPPVSQVDAAIGLLMPPLQTPVNLSVFCDHNYTVEDTMHQRKRIHQLEQQVEKLRKKLKTAQQRCRRQERQLEKLKEVVHFQKEKDDVSERGYVILPNDYFEIVEVPA [L82E], the THAP1 transcriptional activity worked out at 1.33. As for MVQSCSAYGCKNRYDKDKPVSFHKFPLTRPSLCKEWEAAVRRKNFKPTKYSSICSEHFTPDCFKRECNNKLLKENAVPTIFLCTEPHDKKEDLLEPQEQLPPPPLPPPVSQVDAAIGLLMPPLQTPVNLSVFCDHNYTVEDTMHQRKRIHQLEQQVEKLRKKLKTAQQRCRRQERQLEFLKEVVHFQKEKDDVSERGYVILPNDYFEIVEVPA [K179F], the THAP1 transcriptional activity came out at 0.421.

In the case of MVQSCSAYGCKNRYDKDKPVSFHKFPLTRPSLCKEWEAAVRRKNFKPTKYSSICSEHFTPDCFKRECNNKLLKENAVPTIFLCTEPHDKKEDLLEPQEQLPPPPLPPPVSQVDAAIGLLMPPLQTPVNLSVFCDHNYTVEDTMHQRKRIHQLEQQVEKLRKKLKTAQQRCRRQERQLEKLKEVVHFQKEKDDVSERGYVILPNDEFEIVEVPA [Y205E], the THAP1 transcriptional activity turned out to be 1.09. For MVQSCSAYGCKNRYDKDKPVSFHKFPLTRPSLCKEWEAAVRRKNFKPTKYSSICSEHFTPDCFKRECNNKLLKENAVPTIFLCTEPHDKKEDLLEPQEQLPPPPLPPTVSQVDAAIGLLMPPLQTPVNLSVFCDHNYTVEDTMHQRKRIHQLEQQVEKLRKKLKTAQQRCRRQERQLEKLKEVVHFQKEKDDVSERGYVILPNDYFEIVEVPA [P108T] the value was 1.43; for MVQSCSAYGCKNRYDKDKPVSFHKFPLTRPSLCKEWEAAVRRKNFKPTKYSSICSEHFTPDCFKRECNNKLLKENAVPTIFLCTEPHDKKEDLLEPQEQLPPPPLPPPVSQVDAAIGLLMPPLQTPVNLSVFCDHNYTVEDTMHQRKRIHQLEQQVEKLRKKLKTAQQRCRRQERQLEKLKHVVHFQKEKDDVSERGYVILPNDYFEIVEVPA [E182H], 0.73; for MVQSCSAYGCKNRYDKDKPVSFHKFTLTRPSLCKEWEAAVRRKNFKPTKYSSICSEHFTPDCFKRECNNKLLKENAVPTIFLCTEPHDKKEDLLEPQEQLPPPPLPPPVSQVDAAIGLLMPPLQTPVNLSVFCDHNYTVEDTMHQRKRIHQLEQQVEKLRKKLKTAQQRCRRQERQLEKLKEVVHFQKEKDDVSERGYVILPNDYFEIVEVPA [P26T], 0.0945. For the variant MVQSCSAYGCKNRYDKDKPVSFHKFPLTRPSLCKEWEAAVRRKNFKPTKYSSICSEHFTPDCFKRECNNKLLKENAVMTIFLCTEPHDKKEDLLEPQEQLPPPPLPPPVSQVDAAIGLLMPPLQTPVNLSVFCDHNYTVEDTMHQRKRIHQLEQQVEKLRKKLKTAQQRCRRQERQLEKLKEVVHFQKEKDDVSERGYVILPNDYFEIVEVPA [P78M], the THAP1 transcriptional activity worked out at 0.495.
